# B1: KGC-HDAC4c (C-terminal portion of Kusabira Green protein fused with HDAC4c), wild type [human] / KGN-SRD3c (N-terminal portion of Kusabira Green protein fused with SRD3c) [human] (parent complex)
# chain 1: PRFTTGLVYDTLMLKHQCTCGSSSSHPEHAGRIQSIWSRLQETGLRGKCECIRGRKATLEELQTVHSEAHTLLYGTNPLNRQKLDSKKLLGSLASVFVRLPCGGVGVDSDTIWNEVHSAGAARLAVGCVVELVFKVATGELKNGFAVVRPPGHHAEESTPMGFCYFNSVAVAAKLLQQRLSVSKILIVDWDVHHGNGTQQAFYSDPSVLYMSLHRYDDGNFFPGSGAPDEVGTGPGVGFNVNMAFTGGLDPPMGDAEYLAAFRTVVMPIASEFAPDVVLVSSGFDAVEGHPTPLGGYNLSARCFGYLTKQLMGLAGGRIVLALEGGHDLTAICDASEACVSALLGNELDPLPEKVLQQRPNANAVRSMEKVMEIHSKYWRCLQRTTSTAGRSLIEAQTCENEEAET
# chain 2: EGGMSVTQCSKEDGRSSSGPPHETAAPKRTYDMMEGRVGRAISSASIEGLMGRAIPPERHSPHHLKEQHHIRGSITQGIPRSYVEAQEDYLRREAKLLKREGTPPPPPPSRDLTEAYKTQALGPLKLKPAHEGLVATVKEAGRSIHEIPREELRHTPELPLAPRPLKEGSITQGTPLKYDTGASTTGSKKHDVRSLIGSPGRTFPPVHPLDVMADARALERACY
# Variants of: B1
# Assay: BiFC assay (fluorescence spectrophotometer); HEK293 cells; KGN-SRD3c (1 μg) and KGC-HDAC4c mutant (1 μg); 48 hours of transfection; whole cell lysates; parent: 8; read off a plot
row,response [RFU],Variant
1,~4.4,chain 1 PRFTTGLVYDTLMLKHQCTCGSSSSHPEHAGRIQSIWSRLQETGLRGKCECIRGRKATLEELQTVHSEAHTLLYGTNPLNRQKLDSKKLLGSLASVFVRLPCGGVGVDSDTIWNEVHPAGAARLAVGCVVELVFKVATGELKNGFAVVRPPGHHAEESTPMGFCYFNSVAVAAKLLQQRLSVSKILIVDWDVHHGNGTQQAFYSDPSVLYMSLHRYDDGNFFPGSGAPDEVGTGPGVGFNVNMAFTGGLDPPMGDAEYLAAFRTVVMPIASEFAPDVVLVSSGFDAVEGHPTPLGGYNLSARCFGYLTKQLMGLAGGRIVLALEGGHDLTAICDASEACVSALLGNELDPLPEKVLQQRPNANAVRSMEKVMEIHSKYWRCLQRTTSTAGRSLIEAQTCENEEAET [chain 1 S118P]
2,~3.9,chain 1 PRFTTGLVYDTLMLKHQCTCGSSSSHPEHAGRIQSIWSRLQETGLRGKCECIRGRKATLEELQTVHSEAHTLLYGTNPLNRQKLDSKKLLGSLASVFVRLPCGGVGVDSDTIWNEVHSAGAARLAVGCVVELVFKVATGELKNGFAVVRPPGHHAEESTPMGFCYFNSVAVAAKLLQQRLSVSKILIVDWDVHRGNGTQQAFYSDPSVLYMSLHRYDDGNFFPGSGAPDEVGTGPGVGFNVNMAFTGGLDPPMGDAEYLAAFRTVVMPIASEFAPDVVLVSSGFDAVEGHPTPLGGYNLSARCFGYLTKQLMGLAGGRIVLALEGGHDLTAICDASEACVSALLGNELDPLPEKVLQQRPNANAVRSMEKVMEIHSKYWRCLQRTTSTAGRSLIEAQTCENEEAET [chain 1 H194R]
3,~5.3,chain 1 PRFTTGLVYDTLMLKHQCTCGSSSSHPEHAGRIQSIWSRLQETGLRGKCECIRGRKATLEELQTVHSEAHTLLYGTNPLNRQKLDSKKLLGSLASVFVRLPCGGVGVDSDTIWNEVHSAGAARLAVGCVVELVFKVATGELKNGFAVVRPPGHHAEESTPMGFCYFNSVAVAAKLLQQRLSVSKILIVDWDVHHGNGTQQAFYSDPSVLYMSLHRYDDANFFPGSGAPDEVGTGPGVGFNVNMAFTGGLDPPMGDAEYLAAFRTVVMPIASEFAPDVVLVSSGFDAVEGHPTPLGGYNLSARCFGYLTKQLMGLAGGRIVLALEGGHDLTAICDASEACVSALLGNELDPLPEKVLQQRPNANAVRSMEKVMEIHSKYWRCLQRTTSTAGRSLIEAQTCENEEAET [chain 1 G219A]

# The next lines start with the variant.
row,Variant,response [RFU]
1,chain 1 PRFTTGLVYDTLMLKHQCTCGSSSSHPEHAGRIQSIWSRLQETGLRGKCECIRGRKATLEELQTVHSEAHTLLYGTNPLNRQKLDSKKLLGSLASVFVRLPCGGVGVDSDTIWNEVHSAGAARLAVGCVVELVFKVATGELKNGFAVVRPPGHHTEESTPMGFCYFNSVAVAAKLLQQRLSVSKILIVDWDVHHGNGTQQAFYSDPSVLYMSLHRYDDGNFFPGSGAPDEVGTGPGVGFNVNMAFTGGLDPPMGDAEYLAAFRTVVMPIASEFAPDVVLVSSGFDAVEGHPTPLGGYNLSARCFGYLTKQLMGLAGGRIVLALEGGHDLTAICDASEACVSALLGNELDPLPEKVLQQRPNANAVRSMEKVMEIHSKYWRCLQRTTSTAGRSLIEAQTCENEEAET [chain 1 A155T],~4.6
2,chain 1 PRFTTGLVYDTLMLKHQCTCGSSSSHPEHAGRIQSIWSRLQETGLRGKCECIRGRKATLEELQTVHSEAHTLLYGTNPLNRQKLDSKKLLGSLASVFVRLPCGGVGVDSYTIWNEVHSAGAARLAVGCVVELVFKVATGELKNGFAVVRPPGHHAEESTPMGFCYFNSVAVAAKLLQQRLSVSKILIVDWDVHHGNGTQQAFYSDPSVLYMSLHRYDDGNFFPGSGAPDEVGTGPGVGFNVNMAFTGGLDPPMGDAEYLAAFRTVVMPIASEFAPDVVLVSSGFDAVEGHPTPLGGYNLSARCFGYLTKQLMGLAGGRIVLALEGGHDLTAICDASEACVSALLGNELDPLPEKVLQQRPNANAVRSMEKVMEIHSKYWRCLQRTTSTAGRSLIEAQTCENEEAET [chain 1 D110Y],~5.5
3,chain 1 PRFTTGLVYDTLMLKHQCTCGSSSSHPEHAGRIQSIWSRLQETGLRGKCECIRGRKATLEELQTVHSEAHTLLYGTNPLNRQKLDSKKLLGSLASVFVRLPCGGVGVDSDTIWNEVHSAGAARLDVGCVVELVFKVATGELKNGFAVVRPPGHHAEESTPMGFCYFNSVAVAAKLLQQRLSVSKILIVDWDVHHGNGTQQAFYSDPSVLYMSLHRYDDGNFFPGSGAPDEVGTGPGVGFNVNMAFTGGLDPPMGDAEYLAAFRTVVMPIASEFAPDVVLVSSGFDAVEGHPTPLGGYNLSARCFGYLTKQLMGLAGGRIVLALEGGHDLTAICDASEACVSALLGNELDPLPEKVLQQRPNANAVRSMEKVMEIHSKYWRCLQRTTSTAGRSLIEAQTCENEEAET [chain 1 A125D],~4.3
4,chain 1 PRFTTGLVYDTLMLKHQCTCGSSSSHPEHAGRIQSIWSRLQETGLRGKCECIRGRKATLEELQTVHSEAHTLLYGTNPLNRQKLDSKKLLGSLASVFVRLPCGGVGVDSDTIWNEVHSAGAARLAVGCVVELVFKVATGELKNGFAVVRPPGHHAEESTPMGSCYFNSVAVAAKLLQQRLSVSKILIVDWDVHHGNGTQQAFYSDPSVLYMSLHRYDDGNFFPGSGAPDEVGTGPGVGFNVNMAFTGGLDPPMGDAEYLAAFRTVVMPIASEFAPDVVLVSSGFDAVEGHPTPLGGYNLSARCFGYLTKQLMGLAGGRIVLALEGGHDLTAICDASEACVSALLGNELDPLPEKVLQQRPNANAVRSMEKVMEIHSKYWRCLQRTTSTAGRSLIEAQTCENEEAET [chain 1 F163S],~4.5
